# Molecular target: E. coli RNAP core enzyme (E. coli)
# Experiment: single-molecule fluorescence colocalisation
substance,measurement,value
Cy5-labeled E. coli σ^70 factor (from UniProt P00579 1-613) (natural protein),percent of Cy3-RNA signal colocalized with Cy5 on σ^70,35%
same,percent of initially-stalled transcription complexes retaining σ,75%

# — publication doi:10.1101/684738
